Key:
CD22 = target: T1, CD22 (UniProt P20273 20-687, limits assumed); assay: not stated (overview statement); overview statement, assay not stated
T1 construct: also called B cell antigen CD22

[1] = target: T2, CD22 ECD-Fc fusion protein (UniProt P20273 20-687, limits assumed); assay: SPR, BIAcore X100, CD22 ECD-Fc immobilized, scFv in flow
T2 construct: extracellular domain; also called CD22-Fc; not shown: Fc part
Protocol: (§1) FIGS. 13A-13F: (FIG. 13A) BIAcore analysis was used to evaluate association and dissociation curves of various scFvs. […] (FIGS. 13C-13F) Mice were injected with CD22^lo or Nalm6 leukemia on Day 0. […] Bone marrow cells were stained for flow cytometry and analyzed on Fortessa flow machine. Statistics were calculated using unpaired t-test (** p<0.0021).
(§2) Purified CD22 ECD-Fc fusion protein was diluted in 10 mM acetic acid buffer, pH 5.0, immobilized on a CMS biosensor chip for 1400 RU using an amine coupling kit. The running buffer was HBS-EP (10 mM HEPES, pH 7.4, 150 mM NaCl, 3 mM EDTA, 0.05% surfactant P20). The scFvs diluted in running buffer were allowed to flow through the cells at concentrations 0.32, 1.6, 8, 40 and 200 nM. After a 10-minute of dissociation, the chip was regenerated with 10 mM acetic acid, pH 4.0, 0.5 M NaCl. The data were fitted with 1:1 binding model and the dissociation rate constant was estimated with the BIAevaluation software.

[2] = target: T2, CD22 ECD-Fc fusion protein; assay: SPR, BIAcore X100; CD22 ECD-Fc amine-coupled to the chip, scFv as analyte (0.32-200 nM per paragraph 213), 1:1 fit
Protocol: as §1, §2

[3] = target: T2, CD22 ECD-Fc fusion protein; assay: SPR, BIAcore X100, CD22 ECD-Fc immobilized, scFv in flow. The association rate appears only as the divisor in the KD calculation, and its unit is not printed.
Protocol: as §1, §2

[4] = target: T2, CD22 ECD-Fc fusion protein; assay: SPR, BIAcore X100, CD22 ECD-Fc immobilized, scFv in flow, 1:1 model. The fitted value is below the instrument's limit.; fitted kd, below the instrument's limit
Protocol: as §1, §2

[5] = target: T2, CD22 ECD-Fc fusion protein; assay: SPR, BIAcore X100; CD22 ECD-Fc amine-coupled to the chip, scFv as analyte (0.32-200 nM per paragraph 213), 1:1 fit; calculated from a kd that legend paragraph 27 says is below the instrument's limit
Protocol: as §1, §2

[6] = target: T2, CD22 ECD-Fc fusion protein; assay: SPR, BIAcore X100; CD22 ECD-Fc amine-coupled to the chip, scFv as analyte (0.32-200 nM per paragraph 213), 1:1 fit; legend paragraph 27 says this kd is below what the instrument can measure (1.0E-5 1/s)
Protocol: as §1, §2

Row | Kd (CD22) | Kd [1] | fold higher affinity than original scFv m971 [1] | kon [2] | kon [3] | koff [4] | Kd [5] | koff [6] | Binder
1 | < 0.05 nM | – | – | – | – | – | – | – | affinity matured human monoclonal antibody m971-L7 (antibody, V domains shown, Named as 'antibody' in the overview) VH: QVQLQQSGPGMVKPSQTLSLTCAISGDSVSSNSVAWNWIRQSPSRGLEWLGRTYYRSTWYNDYAVSMKSRITINPDTNKNQFSLQLNSVTPEDTAVYYCAREVTGDLEDAFDIWGQGTMVTVSS VL: DIQMIQSPSSLSASVGDRVTITCRASQTIWSYLNWYRQRPGEAPNLLIYAASSLQSGVPSRFSGRGSGTDFTLTISSLQAEDFATYYCQQSYSIPQTFGQGTKLEIK
2 | – | < 0.018 nM | > 1000 fold | 563000 M⁻¹ s⁻¹ | 560000 M⁻¹ s⁻¹ | < 1e-05 s⁻¹ | 0.00206 nM | 1.16e-06 s⁻¹ | m971-L7 scFv (scFv, Soluble scFv run over immobilized CD22 ECD-Fc on a BIAcore X100; also called matured variant L7) scFv: QVQLQQSGPGMVKPSQTLSLTCAISGDSVSSNSVAWNWIRQSPSRGLEWLGRTYYRSTWYNDYAVSMKSRITINPDTNKNQFSLQLNSVTPEDTAVYYCAREVTGDLEDAFDIWGQGTMVTVSSGGGGSGGGGSGGGGSDIQMIQSPSSLSASVGDRVTITCRASQTIWSYLNWYRQRPGEAPNLLIYAASSLQSGVPSRFSGRGSGTDFTLTISSLQAEDFATYYCQQSYSIPQTFGQGTKLEIK
